Laboratory results reported in patent publication US20050181476A1 (VLAAMS INTERUNIVERSITAIR INSTITUUT VOOR BIOTECHNOLOGIE VZW, published 2005).

Target: T1, IRAK-4 (UniProt Q9NWZ3 1-460)
T1 construct: also called Gal4AD-IRAK4 (in yeast); not shown: N-terminal Flag or VSV tag (pCRIII) in HEK293T co-immunoprecipitation
T1 sequence (looked up): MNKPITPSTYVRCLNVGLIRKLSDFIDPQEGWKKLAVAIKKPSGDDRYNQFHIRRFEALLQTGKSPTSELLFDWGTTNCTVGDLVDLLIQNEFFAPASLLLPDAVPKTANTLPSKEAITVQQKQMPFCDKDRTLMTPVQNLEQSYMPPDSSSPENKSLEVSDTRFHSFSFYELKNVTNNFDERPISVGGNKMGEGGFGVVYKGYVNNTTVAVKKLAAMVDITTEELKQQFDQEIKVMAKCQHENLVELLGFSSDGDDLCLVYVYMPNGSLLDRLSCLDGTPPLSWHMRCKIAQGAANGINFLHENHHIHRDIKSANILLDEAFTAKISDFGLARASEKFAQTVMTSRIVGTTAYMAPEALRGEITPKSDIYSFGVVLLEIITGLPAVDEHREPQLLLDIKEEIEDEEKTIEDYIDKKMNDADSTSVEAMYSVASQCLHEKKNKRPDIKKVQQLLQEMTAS
Test: co-immunoprecipitation from transfected HEK293T cells
Method: To test this, IRAK-1KD and IRAK-4 interactions were analyzed in the presence or absence of MyD88 and/or MyD88S. […] However, addition of MyD88 but not MyD88S permitted assembly of a complex containing both IRAKs. MyD88 thereby appears to act like a hinge inducing the proximity of IRAK-1 and IRAK-4.
2×10⁶ HEK293T cells were plated on 10-cm petri dishes and transiently transfected with 1 μg of the indicated expression plasmids. The total amount of DNA was kept at 5 μg per petri dish by adding empty vector. Twenty-four hours post-transfection, cells were washed with PBS, and lysed in 500 μl lysis buffer (50 mM HEPES pH7.6, 250 mM NaCl, 0.1% NP-40, 5 mM EDTA, supplemented with protease and phosphatase inhibitors). Lysates were incubated for 16 hours with 5 μg anti-Flag (Sigma). Immunocomplexes were immobilized on protein A-Trisacryl beads (Pierce Chemical Co., Rockford, USA). The beads were washed twice with lysis buffer and twice with lysis buffer containing 1 M NaCl. Bound proteins were eluted by boiling in Laemli buffer and analyzed by 10% SDS-PAGE and Western blotting. Western blots were blocked with 5% milk and incubated overnight with primary antibodies. Antibodies raised against the C-terminal part of MyD88 were purchased from Immucor (Roedermark, Germany). […]

binding result: no binding
B1: E-MyD88S (other)
chain: MSAGDPRVGSGSLDSFMFSIPLVALNVGVRRRLSLFLNPRTPVAADWTLLPEEMGFEYLEIRELETRPDPTRSLLDAWQGRSGASVGRLLELLALLDREDILKELKSRIGQTPELFDAFICYCPNDIEFVQEMIRQLEQTDYRLKLCVSDRDVLPGTCVWSIASELIEKRCRRMVVVVSDDYLQSKECDFQTKFALSLSPGVQQKRLIPIKYKAMKKDFPSILRFITICDYTNPCTKSWFWTRLAKALSLP
notes: Expressed in HEK293T cells; also called pCAGGS-E-MyD88S; splice variant of MyD88 lacking the intermediate domain (ID); not shown: N-terminal E-tag
